Laboratory results taken from PMC4769319, “Cohesin Releases DNA through Asymmetric ATPase-Driven Ring Opening” (Molecular Cell, 2016).

T1: full-length StrepII-Smc3 (wild-type) (S. cerevisiae, UniProt P47037 1-1230)
T1 construct: Smc3, S. cerevisiae, full length; source: Sf9 insect cells, expressed alone, purified (Strep-II tag purification, size-exclusion chromatography)
T1 sequence (looked up): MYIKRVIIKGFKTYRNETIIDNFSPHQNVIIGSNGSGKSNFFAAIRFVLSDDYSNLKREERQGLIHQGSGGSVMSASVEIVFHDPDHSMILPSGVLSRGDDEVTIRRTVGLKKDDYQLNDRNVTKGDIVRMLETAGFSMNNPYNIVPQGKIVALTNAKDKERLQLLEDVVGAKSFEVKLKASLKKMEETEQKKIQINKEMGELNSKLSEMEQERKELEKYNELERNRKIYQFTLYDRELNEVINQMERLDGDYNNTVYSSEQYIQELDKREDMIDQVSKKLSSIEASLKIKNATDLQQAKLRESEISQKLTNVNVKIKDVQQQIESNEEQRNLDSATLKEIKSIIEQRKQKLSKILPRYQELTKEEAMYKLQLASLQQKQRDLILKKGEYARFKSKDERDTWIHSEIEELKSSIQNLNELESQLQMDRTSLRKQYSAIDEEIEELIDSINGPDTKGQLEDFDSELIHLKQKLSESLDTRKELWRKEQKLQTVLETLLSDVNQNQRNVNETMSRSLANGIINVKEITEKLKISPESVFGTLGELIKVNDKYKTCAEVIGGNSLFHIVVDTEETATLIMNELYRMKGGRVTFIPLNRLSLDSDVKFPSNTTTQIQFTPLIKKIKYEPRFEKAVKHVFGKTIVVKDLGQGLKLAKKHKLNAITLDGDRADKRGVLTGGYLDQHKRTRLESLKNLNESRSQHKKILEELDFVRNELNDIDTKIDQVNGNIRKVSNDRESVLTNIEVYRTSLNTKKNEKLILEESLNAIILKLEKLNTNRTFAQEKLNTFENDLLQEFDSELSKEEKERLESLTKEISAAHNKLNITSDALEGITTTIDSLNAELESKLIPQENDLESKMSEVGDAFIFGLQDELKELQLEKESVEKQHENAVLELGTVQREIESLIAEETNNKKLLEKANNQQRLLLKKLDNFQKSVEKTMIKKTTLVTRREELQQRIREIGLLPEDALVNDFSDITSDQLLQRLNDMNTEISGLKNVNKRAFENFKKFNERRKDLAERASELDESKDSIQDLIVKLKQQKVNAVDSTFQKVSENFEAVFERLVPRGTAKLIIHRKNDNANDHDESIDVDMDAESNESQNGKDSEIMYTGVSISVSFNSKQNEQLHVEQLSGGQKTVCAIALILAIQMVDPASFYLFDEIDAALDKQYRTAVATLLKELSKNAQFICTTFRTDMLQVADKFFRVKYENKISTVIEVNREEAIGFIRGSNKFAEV


Target: T1, full-length StrepII-Smc3 (wild-type)
Assay: scanning force microscopy; full-length Smc1 co-incubated with full-length Smc3 in the presence of ATP, seeded on mica; V shapes and ring shapes counted as heterodimers
Settings: both partners purified

Row | Binder | binding result
1 | full-length HIS6-Smc1 (wild-type) (natural protein, S. cerevisiae, UniProt P32908 1-1225, looked up, Smc1, S. cerevisiae, full length; Always co-expressed and co-purified with StrepII-Scc1-C; vector pFastBac NKI-LIC; details in Supplemental Experimental Procedures; not shown: His6, N-terminal, kept) MGRLVGLELSNFKSYRGVTKVGFGESNFTSIIGPNGSGKSNMMDAISFVLGVRSNHLRSNILKDLIYRGVLNDENSDDYDNEGAASSNPQSAYVKAFYQKGNKLVELMRIISRNGDTSYKIDGKTVSYKDYSIFLENENILIKAKNFLVFQGDVEQIAAQSPVELSRMFEEVSGSIQYKKEYEELKEKIEKLSKSATESIKNRRRIHGELKTYKEGINKNEEYRKQLDKKNELQKFQALWQLYHLEQQKEELTDKLSALNSEISSLKGKINNEMKSLQRSKSSFVKESAVISKQKSKLDYIFKDKEKLVSDLRLIKVPQQAAGKRISHIEKRIESLQKDLQRQKTYVERFETQLKVVTRSKEAFEEEIKQSARNYDKFKLNENDLKTYNCLHEKYLTEGGSILEEKIAVLNNDKREIQEELERFNKRADISKRRITEELSITGEKLDTQLNDLRVSLNEKNALHTERLHELKKLQSDIESANNQEYDLNFKLRETLVKIDDLSANQRETMKERKLRENIAMLKRFFPGVKGLVHDLCHPKKEKYGLAVSTILGKNFDSVIVENLTVAQECIAFLKKQRAGTASFIPLDTIETELPTLSLPDSQDYILSINAIDYEPEYEKAMQYVCGDSIICNTLNIAKDLKWKKGIRGKLVTIEGALIHKAGLMTGGISGDANNRWDKEEYQSLMSLKDKLLIQIDELSNGQRSNSIRAREVENSVSLLNSDIANLRTQVTQQKRSLDENRLEIKYHNDLIEKEIQPKITELKKKLDDLENTKDNLVKEKEALQNNIFKEFTSKIGFTIKEYENHSGELMRQQSKELQQLQKQILTVENKLQFETDRLSTTQRRYEKAQKDLENAQVEMKSLEEQEYAIEMKIGSIESKLEEHKNHLDELQKKFVTKQSELNSSEDILEDMNSNLQVLKRERDGIKEDIEKFDLERVTALKNCKISNINIPISSETTIDDLPISSTDNEAITISNSIDINYKGLPKKYKENNTDSARKELEQKIHEVEEILNELQPNARALERYDEAEGRFEVINNETEQLKAEEKKILNQFLKIKKKRKELFEKTFDYVSDHLDAIYRELTKNPNSNVELAGGNASLTIEDEDEPFNAGIKYHATPPLKRFKDMEYLSGGEKTVAALALLFAINSYQPSPFFVLDEVDAALDITNVQRIAAYIRRHRNPDLQFIVISLKNTMFEKSDALVGVYRQQQENSSKIITLDLSNYAE | binds
2 | full-length HIS6-Smc1 K39I (natural protein, S. cerevisiae, UniProt P32908 1-1225, looked up, Smc1, S. cerevisiae, full length, Walker A mutant; Co-purified with StrepII-Scc1-C; also called Walker A mutant Smc1 K39I; not shown: His6, N-terminal, kept) MGRLVGLELSNFKSYRGVTKVGFGESNFTSIIGPNGSGISNMMDAISFVLGVRSNHLRSNILKDLIYRGVLNDENSDDYDNEGAASSNPQSAYVKAFYQKGNKLVELMRIISRNGDTSYKIDGKTVSYKDYSIFLENENILIKAKNFLVFQGDVEQIAAQSPVELSRMFEEVSGSIQYKKEYEELKEKIEKLSKSATESIKNRRRIHGELKTYKEGINKNEEYRKQLDKKNELQKFQALWQLYHLEQQKEELTDKLSALNSEISSLKGKINNEMKSLQRSKSSFVKESAVISKQKSKLDYIFKDKEKLVSDLRLIKVPQQAAGKRISHIEKRIESLQKDLQRQKTYVERFETQLKVVTRSKEAFEEEIKQSARNYDKFKLNENDLKTYNCLHEKYLTEGGSILEEKIAVLNNDKREIQEELERFNKRADISKRRITEELSITGEKLDTQLNDLRVSLNEKNALHTERLHELKKLQSDIESANNQEYDLNFKLRETLVKIDDLSANQRETMKERKLRENIAMLKRFFPGVKGLVHDLCHPKKEKYGLAVSTILGKNFDSVIVENLTVAQECIAFLKKQRAGTASFIPLDTIETELPTLSLPDSQDYILSINAIDYEPEYEKAMQYVCGDSIICNTLNIAKDLKWKKGIRGKLVTIEGALIHKAGLMTGGISGDANNRWDKEEYQSLMSLKDKLLIQIDELSNGQRSNSIRAREVENSVSLLNSDIANLRTQVTQQKRSLDENRLEIKYHNDLIEKEIQPKITELKKKLDDLENTKDNLVKEKEALQNNIFKEFTSKIGFTIKEYENHSGELMRQQSKELQQLQKQILTVENKLQFETDRLSTTQRRYEKAQKDLENAQVEMKSLEEQEYAIEMKIGSIESKLEEHKNHLDELQKKFVTKQSELNSSEDILEDMNSNLQVLKRERDGIKEDIEKFDLERVTALKNCKISNINIPISSETTIDDLPISSTDNEAITISNSIDINYKGLPKKYKENNTDSARKELEQKIHEVEEILNELQPNARALERYDEAEGRFEVINNETEQLKAEEKKILNQFLKIKKKRKELFEKTFDYVSDHLDAIYRELTKNPNSNVELAGGNASLTIEDEDEPFNAGIKYHATPPLKRFKDMEYLSGGEKTVAALALLFAINSYQPSPFFVLDEVDAALDITNVQRIAAYIRRHRNPDLQFIVISLKNTMFEKSDALVGVYRQQQENSSKIITLDLSNYAE | binds

Continued, values first:

Row | binding result | Binder
3 | binds | full-length HIS6-Smc1 D1164E (natural protein, S. cerevisiae, UniProt P32908 1-1225, looked up, Smc1, S. cerevisiae, full length, D-loop mutant; Co-purified with StrepII-Scc1-C; also called D-loop mutant D1164E; not shown: His6, N-terminal, kept) MGRLVGLELSNFKSYRGVTKVGFGESNFTSIIGPNGSGKSNMMDAISFVLGVRSNHLRSNILKDLIYRGVLNDENSDDYDNEGAASSNPQSAYVKAFYQKGNKLVELMRIISRNGDTSYKIDGKTVSYKDYSIFLENENILIKAKNFLVFQGDVEQIAAQSPVELSRMFEEVSGSIQYKKEYEELKEKIEKLSKSATESIKNRRRIHGELKTYKEGINKNEEYRKQLDKKNELQKFQALWQLYHLEQQKEELTDKLSALNSEISSLKGKINNEMKSLQRSKSSFVKESAVISKQKSKLDYIFKDKEKLVSDLRLIKVPQQAAGKRISHIEKRIESLQKDLQRQKTYVERFETQLKVVTRSKEAFEEEIKQSARNYDKFKLNENDLKTYNCLHEKYLTEGGSILEEKIAVLNNDKREIQEELERFNKRADISKRRITEELSITGEKLDTQLNDLRVSLNEKNALHTERLHELKKLQSDIESANNQEYDLNFKLRETLVKIDDLSANQRETMKERKLRENIAMLKRFFPGVKGLVHDLCHPKKEKYGLAVSTILGKNFDSVIVENLTVAQECIAFLKKQRAGTASFIPLDTIETELPTLSLPDSQDYILSINAIDYEPEYEKAMQYVCGDSIICNTLNIAKDLKWKKGIRGKLVTIEGALIHKAGLMTGGISGDANNRWDKEEYQSLMSLKDKLLIQIDELSNGQRSNSIRAREVENSVSLLNSDIANLRTQVTQQKRSLDENRLEIKYHNDLIEKEIQPKITELKKKLDDLENTKDNLVKEKEALQNNIFKEFTSKIGFTIKEYENHSGELMRQQSKELQQLQKQILTVENKLQFETDRLSTTQRRYEKAQKDLENAQVEMKSLEEQEYAIEMKIGSIESKLEEHKNHLDELQKKFVTKQSELNSSEDILEDMNSNLQVLKRERDGIKEDIEKFDLERVTALKNCKISNINIPISSETTIDDLPISSTDNEAITISNSIDINYKGLPKKYKENNTDSARKELEQKIHEVEEILNELQPNARALERYDEAEGRFEVINNETEQLKAEEKKILNQFLKIKKKRKELFEKTFDYVSDHLDAIYRELTKNPNSNVELAGGNASLTIEDEDEPFNAGIKYHATPPLKRFKDMEYLSGGEKTVAALALLFAINSYQPSPFFVLDEVDAALEITNVQRIAAYIRRHRNPDLQFIVISLKNTMFEKSDALVGVYRQQQENSSKIITLDLSNYAE
4 | binds | full-length HIS6-Smc1 L1129V (natural protein, S. cerevisiae, UniProt P32908 1-1225, looked up, Smc1, S. cerevisiae, full length, Signature motif mutant; Co-purified with StrepII-Scc1-C; also called Signature motif mutant L1129V; not shown: His6, N-terminal, kept) MGRLVGLELSNFKSYRGVTKVGFGESNFTSIIGPNGSGKSNMMDAISFVLGVRSNHLRSNILKDLIYRGVLNDENSDDYDNEGAASSNPQSAYVKAFYQKGNKLVELMRIISRNGDTSYKIDGKTVSYKDYSIFLENENILIKAKNFLVFQGDVEQIAAQSPVELSRMFEEVSGSIQYKKEYEELKEKIEKLSKSATESIKNRRRIHGELKTYKEGINKNEEYRKQLDKKNELQKFQALWQLYHLEQQKEELTDKLSALNSEISSLKGKINNEMKSLQRSKSSFVKESAVISKQKSKLDYIFKDKEKLVSDLRLIKVPQQAAGKRISHIEKRIESLQKDLQRQKTYVERFETQLKVVTRSKEAFEEEIKQSARNYDKFKLNENDLKTYNCLHEKYLTEGGSILEEKIAVLNNDKREIQEELERFNKRADISKRRITEELSITGEKLDTQLNDLRVSLNEKNALHTERLHELKKLQSDIESANNQEYDLNFKLRETLVKIDDLSANQRETMKERKLRENIAMLKRFFPGVKGLVHDLCHPKKEKYGLAVSTILGKNFDSVIVENLTVAQECIAFLKKQRAGTASFIPLDTIETELPTLSLPDSQDYILSINAIDYEPEYEKAMQYVCGDSIICNTLNIAKDLKWKKGIRGKLVTIEGALIHKAGLMTGGISGDANNRWDKEEYQSLMSLKDKLLIQIDELSNGQRSNSIRAREVENSVSLLNSDIANLRTQVTQQKRSLDENRLEIKYHNDLIEKEIQPKITELKKKLDDLENTKDNLVKEKEALQNNIFKEFTSKIGFTIKEYENHSGELMRQQSKELQQLQKQILTVENKLQFETDRLSTTQRRYEKAQKDLENAQVEMKSLEEQEYAIEMKIGSIESKLEEHKNHLDELQKKFVTKQSELNSSEDILEDMNSNLQVLKRERDGIKEDIEKFDLERVTALKNCKISNINIPISSETTIDDLPISSTDNEAITISNSIDINYKGLPKKYKENNTDSARKELEQKIHEVEEILNELQPNARALERYDEAEGRFEVINNETEQLKAEEKKILNQFLKIKKKRKELFEKTFDYVSDHLDAIYRELTKNPNSNVELAGGNASLTIEDEDEPFNAGIKYHATPPLKRFKDMEYVSGGEKTVAALALLFAINSYQPSPFFVLDEVDAALDITNVQRIAAYIRRHRNPDLQFIVISLKNTMFEKSDALVGVYRQQQENSSKIITLDLSNYAE
